This note sets out measurements from EP4682166A1 (Guangzhou Enmai Biotechnology Co., Ltd, dated 2026).

Substitutions are numbered along the chain they refer to. Names may count otherwise. Where only a bound is given, the exact number is not on record here.

The labels stand for the following.
T1: human NMI (N-myc Interacting protein), recombinant protein (human, UniProt Q13287 1-307, limits assumed)
T1 construct: Gene ID: 9111; also called hNMI; antigen
T1 sequence (looked up): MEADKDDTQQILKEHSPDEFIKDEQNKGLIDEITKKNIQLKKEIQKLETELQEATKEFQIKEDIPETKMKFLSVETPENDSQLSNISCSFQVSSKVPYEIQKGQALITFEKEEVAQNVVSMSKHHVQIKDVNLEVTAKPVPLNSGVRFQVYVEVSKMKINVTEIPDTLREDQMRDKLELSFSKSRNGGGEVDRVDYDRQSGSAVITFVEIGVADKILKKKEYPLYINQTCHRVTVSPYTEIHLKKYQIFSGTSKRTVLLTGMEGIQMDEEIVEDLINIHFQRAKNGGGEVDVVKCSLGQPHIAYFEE

B1: 240B10-1 mutant D27P (VH) (antibody, V domains shown)
VH: QSLEESGGRLVTPGGSLTLTCTVSGIPLSSYTMGWVRQAPGKGLEYIGIISGGGRTYYASWAKGRFTISKTSSTTVDLKVTSLTTEDTATYFCARIYTLWGQGTLVTVSS
VL: QVLTQTLASVSAAVGGTVTINCQSSQSVYNNDYLAWFQQKSGQPPKQLIHSASKLASGVPSRFKGSGSGTQFTLTINDVQCDDAATYYCLGGYDCYSADCNVFGGGTEVVVK
B2: 240B10-1 mutant S30K (VH) (antibody, V domains shown)
VH: B1 VH with P27D, S30K
VL: B1 VL
B3: 240B10-1 mutant S29D (VH) (antibody, V domains shown)
VH: B1 VH with P27D, S29D
VL: B1 VL
B4: 240B10-1 mutant S29E (VH) (antibody, V domains shown)
VH: B1 VH with P27D, S29E
VL: B1 VL
B5: 240B10-1 mutant S30D (VH) (antibody, V domains shown)
VH: B1 VH with P27D, S30D
VL: B1 VL
B6: 240B10-1 mutant S30E (VH) (antibody, V domains shown)
VH: B1 VH with P27D, S30E
VL: B1 VL
B7: 240B10-1 mutant G52E (VH) (antibody, V domains shown)
VH: B1 VH with P27D, G52E
VL: B1 VL
B8: 240B10-1 mutant G52K (VH) (antibody, V domains shown)
VH: B1 VH with P27D, G52K
VL: B1 VL
B9: 240B10-1 mutant N30T (VL) (antibody, V domains shown)
VH: B1 VH with P27D
VL: B1 VL with N30T
B10: 240B10-1 mutant S29Q (VH) (antibody, V domains shown)
VH: B1 VH with P27D, S29Q
VL: B1 VL
B11: 240B10-1 mutant G52R (VH) (antibody, V domains shown)
VH: B1 VH with P27D, G52R
VL: B1 VL
B12: 240B10-1 mutant N30E (VL) (antibody, V domains shown)
VH: B1 VH with P27D
VL: B1 VL with N30E
B13: 240B10-1 mutant S30A (VH) (antibody, V domains shown)
VH: B1 VH with P27D, S30A
VL: B1 VL
B14: 240B10-1 mutant G52Q (VH) (antibody, V domains shown)
VH: B1 VH with P27D, G52Q
VL: B1 VL
B15: 94C4 mutant A32K (VH) (antibody, V domains shown)
VH: QSLEESGGGLVQPEGSLTLTCKASGFDFSSNKMCWVRQAPGKGLEWIACISSASSGSSGSTYYASWAKGRFTISKTSSTTVTLQMTSLTAADMATYFCARDGYDLWGPGTLVTVSS
VL: QVLTQTPSSVSAAVGGTVTISCQSSPSVYNNYLSWFQQKPGQSPKLLIYRVSTLASGVPSRFSGSGSGTQFTLTISGVQCDDAATYYCAGGYDSASDTYVFGGGTEVVVK
B16: 94C4 mutant D101K (VH) (antibody, V domains shown)
VH: B15 VH with K32A, D101K
VL: B15 VL
B17: 94C4 mutant D101M (VH) (antibody, V domains shown)
VH: B15 VH with K32A, D101M
VL: B15 VL
B18: 94C4 mutant D101E (VH) (antibody, V domains shown)
VH: B15 VH with K32A, D101E
VL: B15 VL
B19: 94C4 mutant D101Q (VH) (antibody, V domains shown)
VH: B15 VH with K32A, D101Q
VL: B15 VL
B20: 94C4 mutant D101S (VH) (antibody, V domains shown)
VH: B15 VH with K32A, D101S
VL: B15 VL
B21: 94C4 mutant S52K (VH) (antibody, V domains shown)
VH: B15 VH with K32A, S52K
VL: B15 VL
B22: 94C4 mutant D97K (VL) (antibody, V domains shown)
VH: B15 VH with K32A
VL: B15 VL with D97K
B23: 94C4 mutant S29D (VH) (antibody, V domains shown)
VH: B15 VH with S29D, K32A
VL: B15 VL
B24: 98G10-1 (mutated antibody of Table 17-7) (antibody, V domains shown)
VH: QEQLEESGGDLVKPEGSLTLTCTASGFSFSASYWICWVRQAPGKGLEWIACIYGGSSGSAYYASWAKGRFTISKTSSTTVTLQMTSLTAADTATYFCARAGYYNYGSAGDIYPSSFKLWGPGTLVTVSS
VL: DIVMTQTPASVEAAVGGTVTINCQASQSISTALAWYQQKPGQPPKLLIYTASKVASGVPSRFSGSGSGTQFTLTISDLEPADAATYYCQNYYYSSSSITFGGGTEVVVK
notes: also called 98G10 C80P (VL)
B25: 98G10-5 (antibody, V domains shown)
VH: B24 VH
VL: B24 VL with T18R
notes: also called 98G10 T18R/C80P (VL)
B26: 98G10-4 (antibody, V domains shown)
VH: B24 VH with T23K
VL: B24 VL
notes: also called 98G10 T23K (VH), C80P (VL)
B27: 98G10-7 (antibody, V domains shown)
VH: B24 VH with T23K, T81Y
VL: B24 VL with T18R
notes: also called 98G10 T23K/T81Y (VH), T18R/C80P (VL)
B28: 98G10-12 (antibody, V domains shown)
VH: B24 VH with T75D
VL: B24 VL with P80C
notes: also called 98G10 T75D (VH)
B29: 98G10-6 (antibody, V domains shown)
VH: B24 VH with T81Y
VL: B24 VL with T18R
notes: also called 98G10 T81Y (VH), T18R/C80P (VL)
B30: 98G10-2 (antibody, V domains shown)
VH: B24 VH with T81Y
VL: B24 VL with P80C
notes: also called 98G10 T81Y (VH)
B31: 98G10-8 (antibody, V domains shown)
VH: B24 VH with T23K, T75D, T81Y
VL: B24 VL with T18R
notes: also called 98G10 T23K/T75D/T81Y (VH), T18R/C80P (VL)
B32: 98G10-3 (antibody, V domains shown)
VH: B24 VH with T81Y
VL: B24 VL
notes: also called 98G10 T81Y (VH), C80P (VL)
B33: 98G10-10 (antibody, V domains shown)
VH: B24 VH with T23K, T75D, T81Y
VL: B24 VL with T18R, Q70D
notes: also called 98G10 T23K/T75D/T81Y (VH), T18R/Q70D/C80P (VL)
B34: 98G10-11 (antibody, V domains shown)
VH: B24 VH
VL: B24 VL with Q70D, P80C
notes: also called 98G10 Q70D (VL)
B35: 98G10-9 (antibody, V domains shown)
VH: B24 VH with T23K, T81Y
VL: B24 VL with T18R, Q70D
notes: also called 98G10 T23K/T81Y (VH), T18R/Q70D/C80P (VL)

One test addresses T1, human NMI (N-myc Interacting protein), …. In words: ELISA EC50 against parent 240B10-1. On the technique in general: In an ELISA, binding on a coated surface is turned into a signal by an enzyme label.
For the molecule B1, the “Fold decrease in affinity” value was more than 500 fold.
Take B2: the “Fold decrease in affinity” value was more than 500 fold.
Consider B3, for which the “Fold decrease in affinity” value was more than 500 fold.
Same read-out and setting: the result for B4 reads more than 500 fold.
As to B5, the “Fold decrease in affinity” value is more than 500 fold.
The same measure, in the same setting: the result for B6 reads more than 500 fold.
B7: the “Fold decrease in affinity” value was more than 500 fold.
Still for that read-out and setting: then B8, with more than 500 fold; and B9, with more than 500 fold; and B10, with more than 500 fold.
Same read-out and setting: then B11, with more than 500 fold; and B12, with more than 500 fold; and B13, with more than 500 fold.
Same read-out and setting: then B14, with more than 500 fold.

The target is the same in a further test. In words: ELISA EC50 against parent 94C4.
Regarding B15, the “Fold decrease in affinity” value is more than 500 fold.
For the molecule B16, the “Fold decrease in affinity” value was more than 500 fold.
Regarding B17, the “Fold decrease in affinity” value is more than 500 fold.
The same measure, in the same setting: the result for B18 reads more than 500 fold; that for B19, more than 500 fold; that for B20, more than 500 fold.
B21: the “Fold decrease in affinity” value was more than 500 fold.
On the same count and under the same terms, then B22, with more than 500 fold.
Still for that read-out and setting: then B23, with more than 500 fold.

For another test the target is unchanged. Nature of the test: ELISA EC50 against parent 98G10.
For B24, the “Fold decrease in affinity” value was 1.05 fold.
Still for that read-out and setting: the result for B25 reads 1.44 fold; that for B26, 1.07 fold; that for B27, 0.81 fold.
With B28, the “Fold decrease in affinity” value worked out at 0.45 fold.
The same measure, in the same setting: the result for B29 reads 1.02 fold; that for B30, 0.29 fold; that for B31, 0.64 fold.
B32: the “Fold decrease in affinity” value was found to be 1.06 fold.
B33: the “Fold decrease in affinity” value came to 1.02 fold.
Same read-out and setting: then B34, with 0.4 fold.
For the molecule B35, the “Fold decrease in affinity” value is 0.72 fold.

For a further test the target is unchanged. Nature of the test: ELISA, binding to hNMI.
Consider B24, for which the EC50 stood at 0.173 nM.
Take B25: the EC50 is 0.238 nM.
For the molecule B26, the EC50 stood at 0.177 nM.
On to B27, for which the EC50 turned out to be 0.133 nM.
Still for that read-out and setting: then B28, with 0.0746 nM; and B29, with 0.168 nM; and B30, with 0.0483 nM.
On the same count and under the same terms, the result for B31 reads 0.106 nM; that for B32, 0.176 nM.
Regarding B33, the EC50 came out at 0.168 nM.
Still for that read-out and setting: then B34, with 0.0659 nM.
Same read-out and setting: the result for B35 reads 0.119 nM.

One may read the EC50 as the concentration at which the effect is half-maximal.
